In publication PMC5923459 one finds PLA spots per 50 cells (spots per 50 cells) data, which are given here for one substance.

In the test the target is importin β1 (mouse (endogenous in 3T6)) (UniProt P70168). Nature of the test: proximity ligation.
Chain of importin β1 (mouse (endogenous in 3T6)) (P70168 whole entry): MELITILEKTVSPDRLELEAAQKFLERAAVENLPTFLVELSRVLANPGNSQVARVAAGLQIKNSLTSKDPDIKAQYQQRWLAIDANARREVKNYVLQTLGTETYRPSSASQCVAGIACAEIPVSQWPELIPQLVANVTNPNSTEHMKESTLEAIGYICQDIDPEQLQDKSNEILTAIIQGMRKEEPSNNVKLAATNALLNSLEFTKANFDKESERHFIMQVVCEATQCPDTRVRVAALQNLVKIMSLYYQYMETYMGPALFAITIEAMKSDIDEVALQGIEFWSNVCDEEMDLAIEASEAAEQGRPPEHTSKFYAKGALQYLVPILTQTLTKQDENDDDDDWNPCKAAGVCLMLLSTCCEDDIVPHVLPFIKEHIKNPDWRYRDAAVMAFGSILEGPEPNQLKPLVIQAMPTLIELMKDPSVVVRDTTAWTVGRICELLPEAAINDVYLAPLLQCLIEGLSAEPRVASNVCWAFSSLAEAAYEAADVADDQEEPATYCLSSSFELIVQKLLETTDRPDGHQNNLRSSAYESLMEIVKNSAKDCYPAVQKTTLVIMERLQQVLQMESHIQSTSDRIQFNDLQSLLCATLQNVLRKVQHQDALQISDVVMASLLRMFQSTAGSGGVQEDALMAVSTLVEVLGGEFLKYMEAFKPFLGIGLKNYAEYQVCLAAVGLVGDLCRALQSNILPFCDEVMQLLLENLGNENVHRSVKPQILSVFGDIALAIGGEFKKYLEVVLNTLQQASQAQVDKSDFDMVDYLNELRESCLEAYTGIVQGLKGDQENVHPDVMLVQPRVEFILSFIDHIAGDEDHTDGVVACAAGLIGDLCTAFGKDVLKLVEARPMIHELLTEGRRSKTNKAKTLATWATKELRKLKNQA

Chain of wild type mouse polyomavirus (MPyV) virions, strain A3 (capsid proteins VP1, VP2 and VP3) (P03097 whole entry, looked up): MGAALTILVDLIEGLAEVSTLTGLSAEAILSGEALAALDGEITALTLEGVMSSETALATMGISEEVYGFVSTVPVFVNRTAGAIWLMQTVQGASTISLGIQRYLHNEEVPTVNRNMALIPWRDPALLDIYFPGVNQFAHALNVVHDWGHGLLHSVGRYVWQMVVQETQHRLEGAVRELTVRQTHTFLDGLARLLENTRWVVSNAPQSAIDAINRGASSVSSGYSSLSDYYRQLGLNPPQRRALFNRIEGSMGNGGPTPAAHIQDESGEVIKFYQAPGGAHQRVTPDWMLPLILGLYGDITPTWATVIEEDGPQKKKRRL
Chain of wild type mouse polyomavirus (MPyV) virions, strain A3 (capsid proteins VP1, VP2 and VP3) (P03091 whole entry, looked up): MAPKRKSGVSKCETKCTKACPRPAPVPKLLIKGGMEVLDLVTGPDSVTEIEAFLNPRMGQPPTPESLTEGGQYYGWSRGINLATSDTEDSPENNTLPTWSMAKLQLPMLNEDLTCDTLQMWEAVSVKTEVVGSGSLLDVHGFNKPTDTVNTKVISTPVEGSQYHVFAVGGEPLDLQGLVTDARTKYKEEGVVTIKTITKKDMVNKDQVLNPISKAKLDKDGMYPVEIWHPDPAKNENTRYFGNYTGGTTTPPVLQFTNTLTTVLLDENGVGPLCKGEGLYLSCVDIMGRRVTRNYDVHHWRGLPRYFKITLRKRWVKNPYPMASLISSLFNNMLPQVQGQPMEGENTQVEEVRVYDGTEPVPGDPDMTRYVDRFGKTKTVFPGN

As for “wild type mouse polyomavirus (MPyV) virions, strain A3 (capsid proteins VP1, VP2 and VP3) (from UniProt P03091;P03097) (complex)”, the PLA spots per 50 cells (spots per 50 cells) is > 1000.
